From patent publication US20130004522A1, “PHOTOTRIGGERED NANOPARTICLES FOR CELL AND TISSUE TARGETING” (priority 2009, published 2013)
Where no end group is shown, it is not given here. The star is where a group is joined. DMNB = 4,5-dimethoxy-2-nitrobenzyl photo-removable caging group, COc1cc(C*)c([N+](=O)[O-])cc1OC

Tests used:
integrin β1 = integrin β1 (Homo sapiens, UniProt P05556); conditions: previously shown; cited from earlier work
[1] = Un-caging of the caged peptide targeter in solution by HPLC-UV; type: physicochemical; conditions: ten seconds post illumination, retention time shifts to that of the non-caged targeter
Method: HPLC assays were performed on an HP 1100 HPLC system. Samples were injected in 50-μl volumes onto a C18 column. The column was eluted with an aqueous solution at 1 ml/min. The peptides were detected by a UV detector with absorbance wavelength set at 230 nm.
In order to determine the un-caging ability of the targeter (e.g., the peptide GGGGY(DMNB)IGSR—NH2 (SEQ ID NO: 2)) leading to its transformation to the active state, solutions of non-caged peptide (GGGGYIGSR-NH2) (SEQ ID NO: 2), or caged peptides subjected or not subjected to 1 min of illumination were evaluated by HPLC-UV. Retention time in the column of the non-caged targeter was ˜20 min (FIG. 3A) while that of the non-illuminated caged targeter was longer (˜30 min, FIG. 3B) due to the caging group existence which increases the hydrophobicity of the peptide. Ten seconds post illumination a shift in the retention time had occurred and the peptide had exited the column after ˜20 min (FIG. 3C).

Sequence of integrin β1 (P05556 21-798, species assumed): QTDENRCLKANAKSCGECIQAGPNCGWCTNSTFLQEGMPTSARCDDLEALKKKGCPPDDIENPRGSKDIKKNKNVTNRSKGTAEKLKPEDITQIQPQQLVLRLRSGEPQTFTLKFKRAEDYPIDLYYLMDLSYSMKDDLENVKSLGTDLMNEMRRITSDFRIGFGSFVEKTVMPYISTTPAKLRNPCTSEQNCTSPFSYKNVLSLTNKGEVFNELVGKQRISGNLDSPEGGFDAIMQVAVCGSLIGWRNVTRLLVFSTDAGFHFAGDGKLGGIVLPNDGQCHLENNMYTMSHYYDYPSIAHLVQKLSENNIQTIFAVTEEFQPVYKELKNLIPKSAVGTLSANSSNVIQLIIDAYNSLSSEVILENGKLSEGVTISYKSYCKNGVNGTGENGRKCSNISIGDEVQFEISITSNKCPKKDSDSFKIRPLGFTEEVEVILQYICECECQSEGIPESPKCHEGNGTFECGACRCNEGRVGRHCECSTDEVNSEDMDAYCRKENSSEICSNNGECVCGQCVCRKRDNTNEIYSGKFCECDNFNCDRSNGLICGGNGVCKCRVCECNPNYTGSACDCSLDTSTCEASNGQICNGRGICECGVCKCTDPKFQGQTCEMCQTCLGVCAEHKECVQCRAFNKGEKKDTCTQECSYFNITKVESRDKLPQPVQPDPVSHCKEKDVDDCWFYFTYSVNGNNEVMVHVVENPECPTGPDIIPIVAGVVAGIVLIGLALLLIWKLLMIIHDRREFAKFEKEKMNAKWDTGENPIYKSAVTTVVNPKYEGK

| Substance | cell adhesion and migration (integrin β1) | release of the caging group from the peptide after illumination [1] |
| --- | --- | --- |
| YIGSR-NH2 | promote cell adhesion and migration | – |
| GGGGY(DMNB)IGSR—NH2 (GGGGY(DMNB)IGSR-NH2; N-terminus assumed; SMILES CC[C@H](C)[C@H](NC(=O)[C@H](Cc1ccc(OCc2cc(OC)c(OC)cc2[N+](=O)[O-])cc1)NC(=O)CNC(=O)CNC(=O)CNC(=O)CN)C(=O)NCC(=O)N[C@@H](CO)C(=O)N[C@@H](CCCNC(=N)N)C(N)=O) | – | quick release of the caging group |
| CDPGYIGSR | promote cell adhesion and migration | – |
